Source: the Human Domainome abundance scans (Beltran et al. 2025)
± gives the uncertainty stated by the source.

B1: Chromodomain-helicase-DNA-binding protein 4, residues 623 to 675; numbered along this chain, Q14839 (parent)
chain: MIHRILNHSVDKKGHVHYLIKWRDLPYDQASWESEDVEIQDYDLFKQSYWNHR

Variants of: B1
Assay: abundance fitness (aPCA) (normalised: wild type 0, dead -1); higher = more abundant; growth selection in yeast, the domain comes from the species named
Conditions: Homo sapiens

Variant | abundance fitness
R4K | 0.145 ± 0.11
R4Q | -0.233 ± 0.16
R4G | -0.481 ± 0.1
R4C | -0.08 ± 0.11
K46G | -0.846 ± 0.099
K46L | -0.593 ± 0.089
K46H | -0.909 ± 0.19
H52M | -0.18 ± 0.13
H52S | 0.106 ± 0.1
H52Y | -0.254 ± 0.12
H52C | -0.103 ± 0.13
H15C | -0.171 ± 0.14
H15W | -0.631 ± 0.15
H15A | -0.126 ± 0.087
H15K | 0.205 ± 0.13
H15Q | -0.021 ± 0.11
H15D | -0.511 ± 0.14
H15F | -0.344 ± 0.17
S31C | -0.551 ± 0.15
S31R | -0.656 ± 0.097
S31H | -0.916 ± 0.17
S31N | -0.604 ± 0.14
S31W | -0.767 ± 0.2
S31I | -0.702 ± 0.13

Variant | abundance fitness
S31G | -0.885 ± 0.14
S31D | -0.854 ± 0.16
Q47P | -0.804 ± 0.16
Q47H | -0.051 ± 0.14
Q47W | -0.475 ± 0.11
K21L | -0.204 ± 0.089
K21C | -0.424 ± 0.14
K21N | -0.561 ± 0.19
K21P | -0.855 ± 0.14
K21D | -0.818 ± 0.19
K21F | -0.537 ± 0.15
D36H | -0.105 ± 0.11
D36F | -0.267 ± 0.15
D36L | -0.402 ± 0.086
D36Q | -0.415 ± 0.14
D36K | -0.073 ± 0.12
E38C | -0.144 ± 0.13
E38R | -0.37 ± 0.091
E38I | -0.122 ± 0.11
E38N | -0.472 ± 0.16
E38L | -0.199 ± 0.086
E38V | -0.217 ± 0.085
D28F | -0.553 ± 0.13
D28M | -0.685 ± 0.15

Variant | abundance fitness
D28A | 0.116 ± 0.089
D28H | -0.139 ± 0.15
D28W | -0.333 ± 0.18
D28I | -0.664 ± 0.16
D28K | -0.124 ± 0.12
D28L | -0.55 ± 0.1
D28V | -0.462 ± 0.09
L44Y | -0.089 ± 0.084
L44S | -0.015 ± 0.069
L44V | 0.074 ± 0.074
L44H | -0.034 ± 0.077
M1K | 0.112 ± 0.15
M1L | -0.324 ± 0.14
M1I | 0.148 ± 0.092
Q40W | -0.549 ± 0.13
Q40T | -0.036 ± 0.094
Q40H | -0.122 ± 0.11
Q40P | -0.061 ± 0.11
Q40D | -0.047 ± 0.11
Q40C | -0.043 ± 0.14
Y27Q | 0.197 ± 0.14
Y27M | -0.248 ± 0.13
Y27V | 0.097 ± 0.11
Y27L | 0.156 ± 0.075

Variant | abundance fitness
Y27H | 0.068 ± 0.089
Y27C | -0.171 ± 0.13
Y27A | -0.003 ± 0.11
Y27D | 0.133 ± 0.11
Y18L | -0.86 ± 0.11
Y18F | -0.43 ± 0.15
Y18R | -1.05 ± 0.14
Y18C | -0.59 ± 0.18
Y18P | -0.833 ± 0.14
Y18N | -0.754 ± 0.18
K12N | -0.073 ± 0.12
K12Q | -0.084 ± 0.25
K12A | -0.01 ± 0.1
K12M | 0 ± 0.13
K12G | -0.078 ± 0.091
K12D | -0.103 ± 0.15
K12Y | -0.184 ± 0.13
H17C | 0.031 ± 0.15
H17T | 0.115 ± 0.11
H17Y | -0.04 ± 0.11
H17L | -0.292 ± 0.084
V10K | -0.144 ± 0.12
V10Q | -0.377 ± 0.14
V10T | -0.093 ± 0.1

Variant | abundance fitness
V10L | -0.332 ± 0.08
N7W | -0.586 ± 0.19
N7R | -0.263 ± 0.089
N7P | -0.884 ± 0.098
N7Q | -0.101 ± 0.13
S48D | 0.043 ± 0.12
S48F | -0.236 ± 0.11
S48T | -0.124 ± 0.096
S48V | -0.011 ± 0.075
H3F | -0.392 ± 0.19
H3I | -1.05 ± 0.28
H3Y | -0.16 ± 0.13
H3N | -0.266 ± 0.13
H3M | -0.416 ± 0.14
H3Q | 0.045 ± 0.12
H3R | -0.376 ± 0.082
Y49I | -1.13 ± 0.24
Y49W | -0.951 ± 0.15
Y49R | -1 ± 0.13
Y49F | -0.7 ± 0.18
E33W | -0.566 ± 0.13
E33I | 0.101 ± 0.15
E33A | -0.109 ± 0.11
E33G | -0.781 ± 0.17

Variant | abundance fitness
E33R | -0.254 ± 0.095
E33C | 0.13 ± 0.14
E33F | -0.528 ± 0.13
K13N | -0.123 ± 0.093
K13E | -0.066 ± 0.13
K13D | 0.098 ± 0.1
K13F | -0.079 ± 0.088
R53Q | 0.025 ± 0.27
R53C | -0.086 ± 0.21
R53V | -0.09 ± 0.14
W22I | -0.797 ± 0.23
W22F | -0.825 ± 0.16
W22V | -0.55 ± 0.11
W22G | -0.88 ± 0.16
W22N | -1.13 ± 0.37
W22P | -0.959 ± 0.15
W22Q | -0.796 ± 0.17
A30W | -0.465 ± 0.31
A30L | -0.813 ± 0.2
A30E | -0.717 ± 0.41
A30T | -0.653 ± 0.19
A30C | -0.136 ± 0.29
A30F | -0.586 ± 0.24
I2C | -0.662 ± 0.11

Variant | abundance fitness
I2N | -0.751 ± 0.11
F45V | -0.616 ± 0.1
F45C | -0.306 ± 0.11
F45R | -0.757 ± 0.099
F45K | -0.391 ± 0.15
F45I | -0.423 ± 0.085
F45G | -0.856 ± 0.12
F45D | -0.568 ± 0.12
F45P | -0.857 ± 0.11
D11G | -0.597 ± 0.15
D11L | -0.875 ± 0.1
S34A | -0.103 ± 0.1
S34Q | -0.111 ± 0.12
S34G | -0.106 ± 0.085
S34M | -0.441 ± 0.14
S34L | -0.411 ± 0.089
L19T | -0.775 ± 0.3
L19N | -0.262 ± 0.35
L19V | -0.814 ± 0.14
L19H | -0.814 ± 0.2
L19D | -0.71 ± 0.27
P26T | -0.392 ± 0.15
P26C | -0.701 ± 0.22
